From patent US20190112349A1 (UNUM THERAPEUTICS, published 2019)
Read-outs that look alike come from different tables or passages of the source.

B1: Fc-enhanced anti-CD19 antibody (antibody, V domains shown)
VH: EVQLVESGGGLVKPGGSLKLSCAASGYTFTSYVMHWVRQAPGKGLEWIGYINPYNDGTKYNEKFQGRVTISSDKSISTAYMELSSLRSEDTAMYYCARGTYYYGTRVFDYWGQGTLVTVSS
VL: DIVMTQSPATLSLSPGERATLSCRSSKSLQNVNGNTYLYWFQQKPGQSPQLLIYRMSNLNSGVPDRFSGSGSGTEFTLTISSLEPEDFAVYYCMQHLEYPITFGAGTKLEIKR
B2: wild-type anti-BCMA antibody (antibody)
heavy: not shown
light: DIVLTQSPPSLAMSLGKRATISCRASESVTILGSHLIHWYQQKPGQPPTLLIQLASNVQTGVPARFSGSGSRTDFTLTIDPVEEDDVAVYYCLQSRTIPRTFGGGTKLEIKRTVAAPSVFIFPPSDEQLKSGTASVVCLLNNFYPREAKVQWKVDNALQSGNSQESVTEQDSKDSTYSLSSTLTLSKADYEKHKVYACEVTHQGLSSPVTKSFNRGEC
B3: Fc-enhanced anti-BCMA antibody (S239D, I332E) (antibody)
heavy: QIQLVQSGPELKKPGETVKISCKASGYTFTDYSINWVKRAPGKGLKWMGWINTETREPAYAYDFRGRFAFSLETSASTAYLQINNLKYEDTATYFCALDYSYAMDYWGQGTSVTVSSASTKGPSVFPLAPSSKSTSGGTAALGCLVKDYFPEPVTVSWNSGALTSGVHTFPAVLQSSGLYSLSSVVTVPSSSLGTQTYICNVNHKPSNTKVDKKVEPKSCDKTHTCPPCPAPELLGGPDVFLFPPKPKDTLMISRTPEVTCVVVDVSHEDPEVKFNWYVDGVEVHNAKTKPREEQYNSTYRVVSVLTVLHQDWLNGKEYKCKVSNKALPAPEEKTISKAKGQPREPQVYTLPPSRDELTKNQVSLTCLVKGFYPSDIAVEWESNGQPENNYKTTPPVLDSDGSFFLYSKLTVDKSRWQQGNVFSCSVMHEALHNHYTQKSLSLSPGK
light: B2 light
B4: afucosylated Fc-enhanced anti-BCMA antibody (S239D, I332E) (antibody)
heavy: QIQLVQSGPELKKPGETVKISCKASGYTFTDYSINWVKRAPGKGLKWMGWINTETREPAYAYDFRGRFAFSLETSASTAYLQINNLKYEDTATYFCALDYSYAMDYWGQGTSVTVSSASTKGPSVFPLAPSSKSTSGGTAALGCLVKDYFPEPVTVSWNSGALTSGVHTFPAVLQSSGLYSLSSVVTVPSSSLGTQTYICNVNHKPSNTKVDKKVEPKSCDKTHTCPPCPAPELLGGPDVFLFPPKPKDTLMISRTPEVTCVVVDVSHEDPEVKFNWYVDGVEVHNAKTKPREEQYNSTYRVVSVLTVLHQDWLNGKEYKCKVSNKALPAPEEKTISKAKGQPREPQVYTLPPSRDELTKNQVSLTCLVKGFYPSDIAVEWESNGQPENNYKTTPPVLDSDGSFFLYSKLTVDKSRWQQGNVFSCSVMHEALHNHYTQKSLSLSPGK
light: B2 light
modifications: afucosylated Fc glycan
B5: afucosylated anti-BCMA antibody (antibody)
heavy: not shown
light: B2 light
modifications: afucosylated Fc glycan

What was measured:
Experiment in all cases: cell-based or functional assay
[1] = biological target: ACTR variant 102
[2] = biological target: ACTR variant 131
[3] = biological target: ACTR variant 1 (wild-type ACTR)
[4] = biological target: ACTR variant 1 (wild-type ACTR); remark: listed apart in the source
[5] = biological target: ACTR variant 127
[6] = biological target: ACTR variant 94
[7] = biological target: ACTR variant 26
[8] = biological target: ACTR variant 103
[9] = biological target: ACTR variant 93

Chain of ACTR variant 131 (chain, as listed by the source mutant limits assumed): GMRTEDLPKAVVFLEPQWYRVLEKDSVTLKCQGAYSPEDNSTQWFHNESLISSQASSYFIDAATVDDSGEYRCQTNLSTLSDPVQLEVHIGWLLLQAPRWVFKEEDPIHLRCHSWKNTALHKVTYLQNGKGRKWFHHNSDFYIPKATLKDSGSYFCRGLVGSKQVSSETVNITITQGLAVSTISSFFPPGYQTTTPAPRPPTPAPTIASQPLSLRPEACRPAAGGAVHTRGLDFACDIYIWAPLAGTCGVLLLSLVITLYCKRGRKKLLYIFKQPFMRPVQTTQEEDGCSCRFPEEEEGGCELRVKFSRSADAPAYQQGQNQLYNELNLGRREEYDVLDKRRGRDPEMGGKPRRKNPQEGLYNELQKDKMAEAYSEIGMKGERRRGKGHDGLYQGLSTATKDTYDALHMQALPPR
Chain of ACTR variant 102 (chain, as listed by the source mutant limits assumed): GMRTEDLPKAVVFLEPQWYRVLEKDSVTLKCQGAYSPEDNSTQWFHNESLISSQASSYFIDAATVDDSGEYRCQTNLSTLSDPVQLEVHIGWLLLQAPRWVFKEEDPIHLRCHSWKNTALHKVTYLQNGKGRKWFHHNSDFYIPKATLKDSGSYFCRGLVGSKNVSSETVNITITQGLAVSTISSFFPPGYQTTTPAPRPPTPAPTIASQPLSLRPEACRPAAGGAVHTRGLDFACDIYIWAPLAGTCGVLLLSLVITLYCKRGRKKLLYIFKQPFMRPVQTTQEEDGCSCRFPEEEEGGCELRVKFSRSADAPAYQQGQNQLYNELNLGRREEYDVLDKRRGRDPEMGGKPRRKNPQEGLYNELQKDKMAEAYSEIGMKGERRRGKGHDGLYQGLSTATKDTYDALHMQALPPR

Row | Binder | Jurkat NFAT luciferase EC50 [4] [nM] | Jurkat NFAT luciferase EC50 [5] [nM] | Jurkat NFAT luciferase EC50 [6] [nM] | Jurkat NFAT luciferase EC50 [9] [nM] | other results
1 | B1 | – | – | – | – | Jurkat NFAT luciferase EC50 [1]: 2.2 nM; Jurkat NFAT luciferase EC50 [2]: 2 nM; Jurkat NFAT luciferase EC50 [3]: 0.26 nM
2 | B2 | < 20 | – | – | – | –
3 | B3 | 0.83 | < 100 | < 100 | – | –
4 | B4 | 0.17 | 2.26 | 1.12 | < 5 | Jurkat NFAT luciferase EC50 [7]: 4.36 nM; Jurkat NFAT luciferase EC50 [8]: 8.44 nM
5 | B5 | 1 | – | – | < 100 | –
